Experimental data reported in PMC7240154.

Columns and labels:
Assay in all cases: ITC; Vps4 MIT domain (3 uM in PBS) in the cell, titrated with 19 injections of 10 ul of Vps2/24/46 or Vps20/32/60 (33 uM in PBS) at 2-min intervals; 25°C; ITC200; fits: One Set of Sites or Sequential Binding Sites
[1] = biological target: Odinarchaeota_LCB_4 Vps4 MIT domain (Odinarchaeota_LCB_4)
[2] = biological target: Lokiarchaeum_GC14_75 Vps4 MIT domain (Lokiarchaeum_GC14_75)
[3] = biological target: Heimdallarchaeota_LC_3 Vps4 MIT domain (Heimdallarchaeota_LC_3)

Substance	dH [1] [kcal/mol]	dH1 (Sequential Binding Sites, site 1) [3] [kcal/mol]	dH2 (Sequential Binding Sites, site 2) [3] [kcal/mol]	other results
Odinarchaeota_LCB_4 Vps20/32/60 (natural protein)	331			
Lokiarchaeum_GC14_75 Vps2/24/46 (natural protein)				dH1 (Sequential Binding Sites, site 1) [2]: -121 kcal/mol; dH2 (Sequential Binding Sites, site 2) [2]: 422 kcal/mol
Heimdallarchaeota_LC_3 Vps20/32/60 (natural protein)		2780	-2310	
Lokiarchaeum_GC14_75 Vps20/32/60 (natural protein)				dH [2]: 1420 kcal/mol
Odinarchaeota_LCB_4 Vps2/24/46 (natural protein)	392			
Heimdallarchaeota_LC_3 Vps2/24/46 (natural protein)		-473	931	
